This is an account of results in paper PMC12751052.

In this assay the target is AcrIII-2 (second anti-CRISPR of type III systems), viral SAVED protein of Thermocrinis Great Boiling Spring virus (Thermocrinis Great Boiling Spring virus). As to the kind of experiment: crystal structure; apo AcrIII-2, X-ray, data to 1.79 Å; crystals from 1.2 M sodium dihydrogen phosphate, 0.8 M dipotassium hydrogen phosphate, 0.2 M lithium sulphate, 0.1 M CAPS pH 10, 293 K.

As usually defined, the stoichiometry N is the number of molecules, sites or subunits per partner or assembly. Substance “AcrIII-2 (second anti-CRISPR of type III systems), viral SAVED protein of Thermocrinis Great Boiling Spring virus (natural protein)” displayed a stoichiometry N of 2.
